We go through four molecules from article PMC6105031, “The crystal structure of KSHV ORF57 reveals dimeric active sites important for protein stability and function” (PLoS Pathogens, 2018).

Data set [1] concerns the target GFP-tagged full-length ORF57 with all three disrupted nuclear localization signals (ORF57 mt1+2+3) (UniProt Q2HR75). The data set is described as follows: nuclear translocation assay (fluorescence microscopy of cotransfected cells).
Data set [2] deals with the molecule itself. The data set is described as follows: crystal structure; spindle-shaped crystal, sitting-drop vapor diffusion at 4°C, 0.1 M BIS-TRIS propane pH 7.0, 0.8 M lithium sulfate; space group P6(4)22, two molecules in the asymmetric unit, 3.5 Å.
[3] abbreviates: COS-1 cells, 50 double-color positive cells counted, parent: 88.

Take “FLAG-tagged full-length ORF57 (from UniProt Q2HR75) C333S; H423L; C427S; C432S”: in data set [1] (n=50), the other: % cells with nuclear translocation came to 0%.
“FLAG-tagged full-length ORF57 (from UniProt Q2HR75) R325A; R327A”: in data set [1] (setting [3]), the other: % cells with nuclear translocation worked out at 4%.
Still for that read-out and setting: to “FLAG-tagged full-length ORF57 (from UniProt Q2HR75) W292P” belongs 0%.

B1: C-terminal domain (CTD) of KSHV ORF57 (residues 167 to 455) (domain or fragment)
chain: GVSDAVKKLRLPASMIIDGESPRFDDSIIPRHHGACFNVFIPAPPSHVPEVFTDRDITALIRAGGKDDELINKKISAKKIDHLHRQMLSFVTSRHNQAYWVSCRRETAAAGGLQTLGAFVEEQMTWAQTVVRHGGWFDEKDIDIILDTAIFVCNAFVTRFRLLHLSCVFDKQSELALIKQVAYLVAMGNRLVEACNLLGEVKLNFRGGLLLAFVLTIPGMQSRRSISARGQELFRTLLEYYRPGDVMGLLNVIVMEHHSLCRNSECAAATRAAMGSAKFNKGLFFYPLS
notes: KSHV ORF57 (MTA), residues 167 to 455, GenBank ABD28908.1; Crystallised as a dimer (spindle-shaped crystal) and as a monomer (cubic crystal, 4.0 M LiCl); also called ORF57-CTD; source: E. coli BL21 (DE3), purified (Ni-NTA, ULP1 digestion, Superdex 75); not shown: His6, N-terminal, cleaved; SUMO (Smt3 of Saccharomyces cerevisiae), N-terminal, cleaved
Take B1: the stoichiometry N (commonly the number of molecules, sites or subunits per partner or assembly) in data set [2] turned out to be 2.
